# In paper doi:10.1101/258020 (bioRxiv, 2018):
# Legend:
# [1] = target: T1, TMR-phalloidin-labelled biotinylated actin filaments (Cytoskeleton) (UniProt P68135 1-377, biotin (~1 biotin per monomer)); test: optical trap
# [2] = target: T1, TMR-phalloidin-labelled biotinylated …; test: optical trap; remark: listed apart in the source
Binder,k0 (detachment rate from actin at zero load) with F3345 [1] [s⁻¹],k0 (detachment rate from actin at zero load) [2] [s⁻¹]
"human β-cardiac myosin subfragment-1 (short S1, sS1 (complex) chain 1: MGDSEMAVFGAAAPYLRKSEKERLEAQTRPFDLKKDVFVPDDKQEFVKAKIVSREGGKVTAETEYGKTVTVKEDQVMQQNPPKFDKIEDMAMLTFLHEPAVLYNLKDRYGSWMIYTYSGLFCVTVNPYKWLPVYTPEVVAAYRGKKRSEAPPHIFSISDNAYQYMLTDRENQSILITGESGAGKTVNTKRVIQYFAVIAAIGDRSKKDQSPGKGTLEDQIIQANPALEAFGNAKTVRNDNSSRFGKFIRIHFGATGKLASADIETYLLEKSRVIFQLKAERDYHIFYQILSNKKPELLDMLLITNNPYDYAFISQGETTVASIDDAEELMATDNAFDVLGFTSEEKNSMYKLTGAIMHFGNMKFKLKQREEQAEPDGTEEADKSAYLMGLNSADLLKGLCHPRVKVGNEYVTKGQNVQQVIYATGALAKAVYERMFNWMVTRINATLETKQPRQYFIGVLDIAGFEIFDFNSFEQLCINFTNEKLQQFFNHHMFVLEQEEYKKEGIEWTFIDFGMDLQACIDLIEKPMGIMSILEEECMFPKATDMTFKAKLFDNHLGKSANFQKPRNIKGKPEAHFSLIHYAGIVDYNIIGWLQKNKDPLNETVVGLYQKSSLKLLSTLFANYAGADAPIEKGKGKAKKGSSFQTVSALHRENLNKLMTNLRSTHPHFVRCIIPNETKSPGVMDNPLVMHQLRCNGVLEGIRICRKGFPNRILYGDFRQRYRILNPAAIPEGQFIDSRKGAEKLLSSLDIDHNQYKFGHTKVFFKAGLLGLLEEMRDERLSRIITRIQAQSRGVLARMEYKKLLERR chain 2: not shown",36,–
human β-cardiac myosin sS1-eGFP (MYH7 1-808) A223T with essential light chain (complex) chain 1: MGDSEMAVFGAAAPYLRKSEKERLEAQTRPFDLKKDVFVPDDKQEFVKAKIVSREGGKVTAETEYGKTVTVKEDQVMQQNPPKFDKIEDMAMLTFLHEPAVLYNLKDRYGSWMIYTYSGLFCVTVNPYKWLPVYTPEVVAAYRGKKRSEAPPHIFSISDNAYQYMLTDRENQSILITGESGAGKTVNTKRVIQYFAVIAAIGDRSKKDQSPGKGTLEDQIIQTNPALEAFGNAKTVRNDNSSRFGKFIRIHFGATGKLASADIETYLLEKSRVIFQLKAERDYHIFYQILSNKKPELLDMLLITNNPYDYAFISQGETTVASIDDAEELMATDNAFDVLGFTSEEKNSMYKLTGAIMHFGNMKFKLKQREEQAEPDGTEEADKSAYLMGLNSADLLKGLCHPRVKVGNEYVTKGQNVQQVIYATGALAKAVYERMFNWMVTRINATLETKQPRQYFIGVLDIAGFEIFDFNSFEQLCINFTNEKLQQFFNHHMFVLEQEEYKKEGIEWTFIDFGMDLQACIDLIEKPMGIMSILEEECMFPKATDMTFKAKLFDNHLGKSANFQKPRNIKGKPEAHFSLIHYAGIVDYNIIGWLQKNKDPLNETVVGLYQKSSLKLLSTLFANYAGADAPIEKGKGKAKKGSSFQTVSALHRENLNKLMTNLRSTHPHFVRCIIPNETKSPGVMDNPLVMHQLRCNGVLEGIRICRKGFPNRILYGDFRQRYRILNPAAIPEGQFIDSRKGAEKLLSSLDIDHNQYKFGHTKVFFKAGLLGLLEEMRDERLSRIITRIQAQSRGVLARMEYKKLLERR chain 2: not shown,–,104
human β-cardiac myosin sS1-eGFP (MYH7 1-808) R237W with essential light chain (complex) chain 1: MGDSEMAVFGAAAPYLRKSEKERLEAQTRPFDLKKDVFVPDDKQEFVKAKIVSREGGKVTAETEYGKTVTVKEDQVMQQNPPKFDKIEDMAMLTFLHEPAVLYNLKDRYGSWMIYTYSGLFCVTVNPYKWLPVYTPEVVAAYRGKKRSEAPPHIFSISDNAYQYMLTDRENQSILITGESGAGKTVNTKRVIQYFAVIAAIGDRSKKDQSPGKGTLEDQIIQANPALEAFGNAKTVWNDNSSRFGKFIRIHFGATGKLASADIETYLLEKSRVIFQLKAERDYHIFYQILSNKKPELLDMLLITNNPYDYAFISQGETTVASIDDAEELMATDNAFDVLGFTSEEKNSMYKLTGAIMHFGNMKFKLKQREEQAEPDGTEEADKSAYLMGLNSADLLKGLCHPRVKVGNEYVTKGQNVQQVIYATGALAKAVYERMFNWMVTRINATLETKQPRQYFIGVLDIAGFEIFDFNSFEQLCINFTNEKLQQFFNHHMFVLEQEEYKKEGIEWTFIDFGMDLQACIDLIEKPMGIMSILEEECMFPKATDMTFKAKLFDNHLGKSANFQKPRNIKGKPEAHFSLIHYAGIVDYNIIGWLQKNKDPLNETVVGLYQKSSLKLLSTLFANYAGADAPIEKGKGKAKKGSSFQTVSALHRENLNKLMTNLRSTHPHFVRCIIPNETKSPGVMDNPLVMHQLRCNGVLEGIRICRKGFPNRILYGDFRQRYRILNPAAIPEGQFIDSRKGAEKLLSSLDIDHNQYKFGHTKVFFKAGLLGLLEEMRDERLSRIITRIQAQSRGVLARMEYKKLLERR chain 2: not shown,–,155

# Further lines, results first:
k0 (detachment rate from actin at zero load) with F3345 [1] [s⁻¹],k0 (detachment rate from actin at zero load) [2] [s⁻¹],Binder
20,152,human β-cardiac myosin sS1-eGFP (MYH7 1-808) H251N with essential light chain (complex) chain 1: MGDSEMAVFGAAAPYLRKSEKERLEAQTRPFDLKKDVFVPDDKQEFVKAKIVSREGGKVTAETEYGKTVTVKEDQVMQQNPPKFDKIEDMAMLTFLHEPAVLYNLKDRYGSWMIYTYSGLFCVTVNPYKWLPVYTPEVVAAYRGKKRSEAPPHIFSISDNAYQYMLTDRENQSILITGESGAGKTVNTKRVIQYFAVIAAIGDRSKKDQSPGKGTLEDQIIQANPALEAFGNAKTVRNDNSSRFGKFIRINFGATGKLASADIETYLLEKSRVIFQLKAERDYHIFYQILSNKKPELLDMLLITNNPYDYAFISQGETTVASIDDAEELMATDNAFDVLGFTSEEKNSMYKLTGAIMHFGNMKFKLKQREEQAEPDGTEEADKSAYLMGLNSADLLKGLCHPRVKVGNEYVTKGQNVQQVIYATGALAKAVYERMFNWMVTRINATLETKQPRQYFIGVLDIAGFEIFDFNSFEQLCINFTNEKLQQFFNHHMFVLEQEEYKKEGIEWTFIDFGMDLQACIDLIEKPMGIMSILEEECMFPKATDMTFKAKLFDNHLGKSANFQKPRNIKGKPEAHFSLIHYAGIVDYNIIGWLQKNKDPLNETVVGLYQKSSLKLLSTLFANYAGADAPIEKGKGKAKKGSSFQTVSALHRENLNKLMTNLRSTHPHFVRCIIPNETKSPGVMDNPLVMHQLRCNGVLEGIRICRKGFPNRILYGDFRQRYRILNPAAIPEGQFIDSRKGAEKLLSSLDIDHNQYKFGHTKVFFKAGLLGLLEEMRDERLSRIITRIQAQSRGVLARMEYKKLLERR chain 2: not shown
–,80,human β-cardiac myosin sS1-eGFP (MYH7 1-808) S532P with essential light chain (complex) chain 1: MGDSEMAVFGAAAPYLRKSEKERLEAQTRPFDLKKDVFVPDDKQEFVKAKIVSREGGKVTAETEYGKTVTVKEDQVMQQNPPKFDKIEDMAMLTFLHEPAVLYNLKDRYGSWMIYTYSGLFCVTVNPYKWLPVYTPEVVAAYRGKKRSEAPPHIFSISDNAYQYMLTDRENQSILITGESGAGKTVNTKRVIQYFAVIAAIGDRSKKDQSPGKGTLEDQIIQANPALEAFGNAKTVRNDNSSRFGKFIRIHFGATGKLASADIETYLLEKSRVIFQLKAERDYHIFYQILSNKKPELLDMLLITNNPYDYAFISQGETTVASIDDAEELMATDNAFDVLGFTSEEKNSMYKLTGAIMHFGNMKFKLKQREEQAEPDGTEEADKSAYLMGLNSADLLKGLCHPRVKVGNEYVTKGQNVQQVIYATGALAKAVYERMFNWMVTRINATLETKQPRQYFIGVLDIAGFEIFDFNSFEQLCINFTNEKLQQFFNHHMFVLEQEEYKKEGIEWTFIDFGMDLQACIDLIEKPMGIMPILEEECMFPKATDMTFKAKLFDNHLGKSANFQKPRNIKGKPEAHFSLIHYAGIVDYNIIGWLQKNKDPLNETVVGLYQKSSLKLLSTLFANYAGADAPIEKGKGKAKKGSSFQTVSALHRENLNKLMTNLRSTHPHFVRCIIPNETKSPGVMDNPLVMHQLRCNGVLEGIRICRKGFPNRILYGDFRQRYRILNPAAIPEGQFIDSRKGAEKLLSSLDIDHNQYKFGHTKVFFKAGLLGLLEEMRDERLSRIITRIQAQSRGVLARMEYKKLLERR chain 2: not shown
24,140,human β-cardiac myosin sS1-eGFP (MYH7 1-808) D239N with essential light chain (complex) chain 1: MGDSEMAVFGAAAPYLRKSEKERLEAQTRPFDLKKDVFVPDDKQEFVKAKIVSREGGKVTAETEYGKTVTVKEDQVMQQNPPKFDKIEDMAMLTFLHEPAVLYNLKDRYGSWMIYTYSGLFCVTVNPYKWLPVYTPEVVAAYRGKKRSEAPPHIFSISDNAYQYMLTDRENQSILITGESGAGKTVNTKRVIQYFAVIAAIGDRSKKDQSPGKGTLEDQIIQANPALEAFGNAKTVRNNNSSRFGKFIRIHFGATGKLASADIETYLLEKSRVIFQLKAERDYHIFYQILSNKKPELLDMLLITNNPYDYAFISQGETTVASIDDAEELMATDNAFDVLGFTSEEKNSMYKLTGAIMHFGNMKFKLKQREEQAEPDGTEEADKSAYLMGLNSADLLKGLCHPRVKVGNEYVTKGQNVQQVIYATGALAKAVYERMFNWMVTRINATLETKQPRQYFIGVLDIAGFEIFDFNSFEQLCINFTNEKLQQFFNHHMFVLEQEEYKKEGIEWTFIDFGMDLQACIDLIEKPMGIMSILEEECMFPKATDMTFKAKLFDNHLGKSANFQKPRNIKGKPEAHFSLIHYAGIVDYNIIGWLQKNKDPLNETVVGLYQKSSLKLLSTLFANYAGADAPIEKGKGKAKKGSSFQTVSALHRENLNKLMTNLRSTHPHFVRCIIPNETKSPGVMDNPLVMHQLRCNGVLEGIRICRKGFPNRILYGDFRQRYRILNPAAIPEGQFIDSRKGAEKLLSSLDIDHNQYKFGHTKVFFKAGLLGLLEEMRDERLSRIITRIQAQSRGVLARMEYKKLLERR chain 2: not shown
